Biological target: N-terminal domain of NOEY2 (NOEY2-N), LexA fusion (pGilda/LexA-NOEY2-N) (human) (UniProt O95661)
Experiment: two-hybrid

Chain of UniProt O95661 (O95661 whole entry, the tested form may be a part): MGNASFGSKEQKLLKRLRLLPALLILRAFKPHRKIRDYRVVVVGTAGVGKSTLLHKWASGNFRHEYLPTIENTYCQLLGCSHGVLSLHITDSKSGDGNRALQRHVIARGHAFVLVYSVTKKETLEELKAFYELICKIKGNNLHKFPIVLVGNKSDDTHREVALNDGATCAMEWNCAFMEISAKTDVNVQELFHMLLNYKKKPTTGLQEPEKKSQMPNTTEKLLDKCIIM

Substance: VEGFR-2, B42 fusion (pJG4-5) (from UniProt P35968 1-1356) (receptor)
- β-galactosidase activity: 92.2 unit

— article PMC8411030
